# Experimental data reported in patent publication US20220204643A1 (published 2022).
# T1: Microtubule associated scaffold protein 1 (human, UniProt Q9ULD2 875-1270)
# T1 construct: HuProt array protein, full-length recombinant from yeast; also called MTUS1
# T1 sequence: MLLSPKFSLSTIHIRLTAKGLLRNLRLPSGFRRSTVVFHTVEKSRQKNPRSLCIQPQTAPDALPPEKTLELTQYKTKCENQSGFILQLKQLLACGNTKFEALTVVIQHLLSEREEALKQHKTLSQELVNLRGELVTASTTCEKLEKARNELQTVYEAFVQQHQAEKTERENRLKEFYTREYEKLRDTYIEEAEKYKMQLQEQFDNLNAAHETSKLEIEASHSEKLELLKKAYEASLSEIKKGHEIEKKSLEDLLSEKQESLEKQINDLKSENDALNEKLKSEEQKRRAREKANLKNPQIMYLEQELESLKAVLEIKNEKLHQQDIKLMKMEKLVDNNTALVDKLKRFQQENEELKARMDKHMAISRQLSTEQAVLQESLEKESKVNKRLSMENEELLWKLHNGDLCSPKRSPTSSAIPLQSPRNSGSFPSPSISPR
# T2: RAD1 checkpoint DNA exonuclease, transcript variant 1 (human, UniProt O60671 1-282)
# T2 construct: HuProt array protein, full-length recombinant from yeast
# T2 sequence: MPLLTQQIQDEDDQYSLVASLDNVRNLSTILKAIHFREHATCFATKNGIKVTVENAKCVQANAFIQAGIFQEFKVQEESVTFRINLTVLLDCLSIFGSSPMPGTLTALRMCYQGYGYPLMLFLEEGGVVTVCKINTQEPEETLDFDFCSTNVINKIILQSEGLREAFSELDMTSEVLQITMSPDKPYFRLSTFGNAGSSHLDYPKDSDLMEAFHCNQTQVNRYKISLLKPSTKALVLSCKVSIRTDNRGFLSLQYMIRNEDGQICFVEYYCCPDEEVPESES
# T3: RNA binding motif protein 47, transcript variant X10 (human, UniProt A0AV96 1-593)
# T3 construct: HuProt array protein, full-length recombinant from yeast; also called RBM47
# T3 sequence: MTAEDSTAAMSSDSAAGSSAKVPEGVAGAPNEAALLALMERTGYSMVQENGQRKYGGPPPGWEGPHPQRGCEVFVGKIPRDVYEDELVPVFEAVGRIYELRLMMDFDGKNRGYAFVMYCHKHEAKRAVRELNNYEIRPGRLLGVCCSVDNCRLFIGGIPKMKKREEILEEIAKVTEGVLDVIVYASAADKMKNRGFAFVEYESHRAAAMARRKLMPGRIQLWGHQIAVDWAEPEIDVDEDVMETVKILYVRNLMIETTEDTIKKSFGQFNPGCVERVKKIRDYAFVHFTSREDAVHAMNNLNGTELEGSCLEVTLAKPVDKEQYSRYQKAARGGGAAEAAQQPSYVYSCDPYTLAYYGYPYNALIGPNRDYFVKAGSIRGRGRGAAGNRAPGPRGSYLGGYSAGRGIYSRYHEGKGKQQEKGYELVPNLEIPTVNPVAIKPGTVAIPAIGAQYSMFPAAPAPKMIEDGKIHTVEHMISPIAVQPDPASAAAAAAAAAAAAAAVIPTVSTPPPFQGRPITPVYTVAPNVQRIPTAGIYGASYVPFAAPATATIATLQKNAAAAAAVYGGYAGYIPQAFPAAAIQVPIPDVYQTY
# T4: NCCRP1, F-box associated domain containing (human, UniProt Q6ZVX7 1-275)
# T4 construct: HuProt array protein, full-length recombinant from yeast
# T4 sequence: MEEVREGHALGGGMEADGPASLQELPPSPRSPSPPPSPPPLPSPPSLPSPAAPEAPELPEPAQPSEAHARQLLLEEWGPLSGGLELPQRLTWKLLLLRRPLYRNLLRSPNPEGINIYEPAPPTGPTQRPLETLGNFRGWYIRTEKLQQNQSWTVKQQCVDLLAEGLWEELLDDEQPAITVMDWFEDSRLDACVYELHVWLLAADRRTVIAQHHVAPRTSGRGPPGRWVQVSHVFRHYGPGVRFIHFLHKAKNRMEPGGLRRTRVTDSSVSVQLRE
# T5: S100 calcium binding protein B (human, UniProt P04271 2-92)
# T5 construct: HuProt array protein, full-length recombinant from yeast; also called S100B
# T5 sequence: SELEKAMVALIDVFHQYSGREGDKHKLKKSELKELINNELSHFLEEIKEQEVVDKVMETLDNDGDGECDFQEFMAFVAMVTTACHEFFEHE
# T6: dynein axonemal assembly factor 3, transcript variant 3 (human, UniProt Q8N9W5 1-541)
# T6 construct: HuProt array protein, full-length recombinant from yeast; also called DNAAF3
# T6 sequence: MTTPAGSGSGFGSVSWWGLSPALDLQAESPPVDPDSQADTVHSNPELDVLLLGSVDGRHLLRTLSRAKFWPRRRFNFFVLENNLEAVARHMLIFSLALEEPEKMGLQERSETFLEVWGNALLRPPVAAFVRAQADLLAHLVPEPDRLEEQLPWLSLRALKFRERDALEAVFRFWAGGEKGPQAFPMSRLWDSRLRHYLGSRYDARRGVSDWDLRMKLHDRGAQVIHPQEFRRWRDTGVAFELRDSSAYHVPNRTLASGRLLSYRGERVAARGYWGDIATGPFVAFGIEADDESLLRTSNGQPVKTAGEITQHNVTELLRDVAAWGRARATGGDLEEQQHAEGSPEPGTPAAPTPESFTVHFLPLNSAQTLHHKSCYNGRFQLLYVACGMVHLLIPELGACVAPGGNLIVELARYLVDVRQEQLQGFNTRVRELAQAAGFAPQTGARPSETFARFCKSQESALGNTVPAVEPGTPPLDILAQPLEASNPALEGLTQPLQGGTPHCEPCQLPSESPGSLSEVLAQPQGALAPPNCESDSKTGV
# T7: CDP-diacylglycerol synthase 1 (human, UniProt Q92903 1-461)
# T7 construct: HuProt array protein, full-length recombinant from yeast; also called CDS1
# T7 sequence: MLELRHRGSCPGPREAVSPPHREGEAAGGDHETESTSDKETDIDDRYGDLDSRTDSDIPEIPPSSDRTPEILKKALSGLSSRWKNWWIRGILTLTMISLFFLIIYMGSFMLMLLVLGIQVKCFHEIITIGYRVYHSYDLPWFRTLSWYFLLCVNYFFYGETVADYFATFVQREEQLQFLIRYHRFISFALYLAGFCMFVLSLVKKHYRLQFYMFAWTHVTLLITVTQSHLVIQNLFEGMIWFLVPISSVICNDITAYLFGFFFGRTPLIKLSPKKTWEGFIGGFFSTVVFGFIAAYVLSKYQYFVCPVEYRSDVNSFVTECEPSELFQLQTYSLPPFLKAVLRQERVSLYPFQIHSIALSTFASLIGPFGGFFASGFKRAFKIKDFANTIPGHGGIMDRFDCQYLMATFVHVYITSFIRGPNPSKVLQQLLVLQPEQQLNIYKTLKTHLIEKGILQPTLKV
# B1: TKIC1006 (antibody, V domains shown)
# VH: QVQLVQSGAEVKKPGSSVKVSCKTSGGTFSSYTISWVRQAPGQGPEWMGRIIPILNITNYAQKFQGRVTITADKSTSTTYMEMGSLRSEDTAVYFCARSFYGSGLQWGQGTLVTVSS
# VL: EIVLTQSPGTLSLSPGERATLSCRASQSVSSSYLVWYQQKAGQAPRLLIYGASSRATGISDRFSGSGSGTDFTLTISRLEPEDFAVYYCQHFRSSPPTYTFGQGTKLEIKR
# notes: detected with anti-human IgG Fc
# B2: THNS1006 (antibody, V domains shown)
# VH: QVQLVESGGGVVQPGRSLRLSCAASGFTFSSYGMHWVRQAPGKGLEWVAIISYDGSNKYYADSVKGRFTISRDKSKNTLYLQMNSLRAEDTAVYYCAKSKGNYRDAMDVWGQGTTVTVSS
# VL: SYVLTQPPSVSVAPGQTARITCGGNNIGSKSVHWYQQKPGQAPVLVVYDDSDRPSGIPERFSGSNSGNTATLTISRVEAGDEADYYCQVWDSSSDPWVFGGGTKLTVLG
# notes: as for B1
# B3: THNS1004 (antibody, V domains shown)
# VH: EVQLVESGGGLVQPGGSLRLSCAASGFTFSSNWMSWVRQAPGKGLEWVANIKEDGSEKYYVDSVKGRFTIFRDNAKNSLYLQMNSLRAEDTAVYYCARVPSRYGRSRGAFDIWGQGTMVTVSS
# VL: DIQMTQSPSSLSASVGDRVTITCRASQSISSYLNWYQQKPGKAPKLLIYAASSLQSGVPSRFSGSGSGTDFTLAISSLQPEDFATYYCHQTYSTRLTFGGGTEVEIKR
# notes: as for B1
# B4: THNS1003 (antibody, V domains shown)
# VH: VVQLVESGGGLVQPGGSLRLSCAASGFTFNNYEMNWVRQAPGKGLEWVSYISSSGSTIYYADSVKGRFTISRDNAKNSLYLQMNSLRAEDTAVYYCARQMVTTRGYWGQGTLVTVSS
# VL: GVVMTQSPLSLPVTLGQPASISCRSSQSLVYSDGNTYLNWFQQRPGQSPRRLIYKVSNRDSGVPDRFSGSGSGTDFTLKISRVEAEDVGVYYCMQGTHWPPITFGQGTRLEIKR
# notes: as for B1
# B5: TKIC1012 (antibody, V domains shown)
# VH: VVQLVESGGGLVQPGGSLRLSCAASGFSFSTYWMSWVRQAPGKGLEWVANIKQDGSEKHYVDSVKGRFTISRDNAKNSLYLQMNSLRAEDTAMYYCARRAYSFDYWGQGTLVTVSS
# VL: DIQMTQSPSTLSASVGDKVTITCRASQSVGSWLAWYQQKPGKAPKLLISVASSLESGVPSRFSGSGSGTEFTLTVSSLQPDDFATYYCQQYNSYSWTFGQGTKVELKR
# notes: as for B1
# B6: THNS1014 (antibody, V domains shown)
# VH: HVQLLQSGPGLVKPSQTLSLTCAISGDSVSSTSGAWNWIRQSPSRGLEWLGRTYYRSQWMNDYAESVRSRITINPDTSKNQFSLQLKSVTPEDTAVYYCTRGWAFTSSDWGQGTQVTVSS
# VL: EIVLTQSPGTLSLSPGERATLSCRASQSFDGKSLAWYQQKPGQTPRLLVYGASSRATGIPDRFGGSGSGTDFTLTISRLESEDFAVYFCQQYAYVPITFGQGTRLERKR
# notes: as for B1
# B7: TKIC1007 (antibody, V domains shown)
# VH: GVDLVESGGGLVKPGGSLRLSCAASGFSFSRYNINWVRQAPGKGLEWVSSISSTSNYIYYADSVKGRFTISRDNAKNSLYLQMNSLRAEDTAVYYCARAMGGYTYYLDDWGQGTLVTVSS
# VL: QSALTQPASVSGSPGQSITISCTGTSSDVGLYNFVSWYQQHPGKAPKLMIFDVNNRPSGVSNRFSGSKSDNTASLTISGLQAEDEADYYCSSYSRTTTLVFGGGTKVTVLG
# notes: as for B1
# B8: TKIC1002 (antibody, V domains shown)
# VH: PVQLQESGPGLVKPSETLSLTCTVSGGSISSYYWSWIRQPPGKGLEWIGYLFYSGSTNYNPSLKSRVTISVDTSKNQFSLKLGSVTAADTAVYYCARHRIFGLDVWGQGTTVTVSS
# VL: EIVLTQSPGTLSLSLGERATLSCRASQSVSGSHLAWYQQKPGQAPRLLIYDASSRATGIPDRFSGSGSGTEFTLTISRLEPEDFAVYYCQQYGSSPLWFGQGTKVEIK
# notes: as for B1
# Columns and labels:
# [1] = biological target: aldo-keto reductase family 1 member B, transcript variant 1 (human, UniProt P15121 2-316)
# [2] = biological target: T1, Microtubule associated scaffold protein …
# [3] = biological target: T2, RAD1 checkpoint DNA exonuclease, …
# [4] = biological target: T3, RNA binding motif protein 47, …
# [5] = biological target: T4, NCCRP1, F-box associated domain …
# [6] = biological target: T8, coiled-coil domain containing 102A, transcript variant X1 (human, UniProt Q96A19 1-550)
# T8 construct: HuProt array protein, full-length recombinant from yeast; also called CCDC102A
# [7] = biological target: T5, S100 calcium binding protein B
# [8] = biological target: T6, dynein axonemal assembly factor 3, …
# [9] = biological target: T7, CDP-diacylglycerol synthase 1
# [10] = biological target: T9, proliferating cell nuclear antigen, transcript variant 1 (human, UniProt P12004 1-261)
# T9 construct: HuProt array protein, full-length recombinant from yeast; also called PCNA
# [11] = biological target: T10, aarF domain containing kinase 5 (human, UniProt Q3MIX3 1-580)
# T10 construct: HuProt array protein, full-length recombinant from yeast; also called ADCK5
# T10 sequence (Q3MIX3 other isoform, or with tags, fused parts or gaps limits assumed): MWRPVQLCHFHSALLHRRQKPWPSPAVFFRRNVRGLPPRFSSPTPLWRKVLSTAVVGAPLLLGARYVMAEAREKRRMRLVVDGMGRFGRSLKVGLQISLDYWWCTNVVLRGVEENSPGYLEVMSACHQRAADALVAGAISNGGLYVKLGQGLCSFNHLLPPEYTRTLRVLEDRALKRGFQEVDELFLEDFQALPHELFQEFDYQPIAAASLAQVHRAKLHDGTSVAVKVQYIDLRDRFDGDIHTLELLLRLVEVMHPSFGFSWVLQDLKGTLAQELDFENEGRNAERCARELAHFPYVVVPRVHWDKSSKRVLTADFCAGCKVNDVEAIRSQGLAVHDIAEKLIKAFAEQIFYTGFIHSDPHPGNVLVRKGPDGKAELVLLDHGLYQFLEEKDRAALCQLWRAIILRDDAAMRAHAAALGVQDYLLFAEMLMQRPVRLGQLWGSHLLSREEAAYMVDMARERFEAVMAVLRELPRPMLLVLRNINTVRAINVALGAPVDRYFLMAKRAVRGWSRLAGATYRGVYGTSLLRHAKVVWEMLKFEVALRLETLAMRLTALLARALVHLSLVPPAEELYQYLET
# T8 sequence (Q96A19 other isoform, or with tags, fused parts or gaps mutant limits assumed): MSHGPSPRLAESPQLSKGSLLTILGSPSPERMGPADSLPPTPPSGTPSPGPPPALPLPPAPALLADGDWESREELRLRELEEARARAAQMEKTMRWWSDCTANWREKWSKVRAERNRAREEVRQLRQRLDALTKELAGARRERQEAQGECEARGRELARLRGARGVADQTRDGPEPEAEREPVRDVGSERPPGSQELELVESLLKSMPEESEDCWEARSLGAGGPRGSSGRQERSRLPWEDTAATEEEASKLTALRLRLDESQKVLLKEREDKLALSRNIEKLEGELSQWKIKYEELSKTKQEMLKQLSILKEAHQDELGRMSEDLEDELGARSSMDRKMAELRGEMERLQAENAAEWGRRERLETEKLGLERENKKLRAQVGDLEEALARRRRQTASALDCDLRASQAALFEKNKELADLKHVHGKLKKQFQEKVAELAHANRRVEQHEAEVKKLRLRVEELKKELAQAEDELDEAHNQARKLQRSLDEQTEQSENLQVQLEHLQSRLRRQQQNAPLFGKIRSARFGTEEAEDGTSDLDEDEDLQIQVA
# T9 sequence (P12004 whole entry, change not shown): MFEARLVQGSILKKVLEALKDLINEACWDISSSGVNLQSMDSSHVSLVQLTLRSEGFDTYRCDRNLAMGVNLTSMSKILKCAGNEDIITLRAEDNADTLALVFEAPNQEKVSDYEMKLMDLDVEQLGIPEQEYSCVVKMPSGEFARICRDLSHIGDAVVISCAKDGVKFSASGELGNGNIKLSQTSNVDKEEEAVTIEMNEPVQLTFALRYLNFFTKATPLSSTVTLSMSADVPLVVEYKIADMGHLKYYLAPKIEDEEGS
binder,measurement,setting,value
B1,binding result,[1],binds
B2,binding result,[2],binds
same,binding result,[3],binds
B3,binding result,[4],binds
B4,binding result,[5],binds
same,binding result,[6],binds
B5,binding result,[7],binds
B6,binding result,[8],binds
same,binding result,[9],binds
B7,binding result,[10],binds
B8,binding result,[11],binds
